± gives the standard deviation of the averaged measurements.
Test: total protein half-life in vivo (active degradation + dilution); higher = more stable protein
[1] = E. coli NCM3722 delta-clpP delta-lon delta-hslV, growth: N-lim chemostat, doubling time 6 h
[2] = E. coli NCM3722 delta-hslV, growth: N-lim chemostat, doubling time 6 h
[3] = E. coli NCM3722 delta-lon, growth: N-lim chemostat, doubling time 6 h
[4] = E. coli NCM3722 delta-smpB, growth: N-lim chemostat, doubling time 6 h
[5] = wild type E. coli NCM3722, growth: C-lim chemostat, doubling time 6 h
[6] = wild type E. coli NCM3722, growth: C-lim chemostat, doubling time 12 h
[7] = wild type E. coli NCM3722, growth: N-lim chemostat, doubling time 6 h
[8] = wild type E. coli NCM3722, growth: N-lim chemostat, doubling time 12 h
[9] = wild type E. coli NCM3722, growth: P-lim chemostat, doubling time 6 h
[10] = wild type E. coli NCM3722, growth: P-lim chemostat, doubling time 12 h
[11] = E. coli NCM3722 delta-clpP, growth: N-lim chemostat, doubling time 6 h
[12] = wild type E. coli NCM3722, growth: C-lim chemostat, doubling time 3 h

In the case of “MEIFFTILIMTLVVSLSGVVTRVMPFQIPLPLMQIAIGALLAWPTFGLHVEFDPELFLVLFIPPLLFADGWKTPTREFLEHGREIFGLALALVVVTVVGIGFLIYWVVPGIPLIPAFALAAVLSPTDAVALSGIVGEGRIPKKIMGILQGEALMNDASGLVSLKFAVAVAMGTMIFTVGGATVEFMKVAIGGILAGFVVSWLYGRSLRFLSRWGGDEPATQIVLLFLLPFASYLIAEHIGVSGILAAVAAGMTITRSGVMRRAPLAMRLRANSTWAMLEFVFNGMVFLLLGLQLPGILETSLMAAEIDPNVEIWMLFTNIILIYAALMLVRFGWLWTMKKFSNRFLKKKPMEFGSWTTREILIASFAGVRGAITLAGVLSIPLLLPDGNVFPARYELVFLAAGVILFSLFVGVVMLPILLQHIEVADHSQQLKEERIARAATAEVAIVAIQKMEERLAADTEENIDNQLLTEVSSRVIGNLRRRADGRNDVESSVQEENLERRFRLAALRSERAELYHLRATREISNETLQKLLHDLDLLEALLIEENQ”, the “total protein half-life in vivo” value [1] is reported as 6.08 ± 0.45 h, the “total protein half-life in vivo” value [2] is reported as 6.29 ± 0.48 h and the “total protein half-life in vivo” value [3] is reported as 5.55 ± 0.11 h. The “total protein half-life in vivo” value [4] was 5.17 ± 1.3 h, the “total protein half-life in vivo” value [5] was 5.6 ± 0.69 h and the “total protein half-life in vivo” value [6] was 11.9 ± 0.93 h. The “total protein half-life in vivo” value [7] was 5.74 ± 0.28 h, the “total protein half-life in vivo” value [8] was 10.9 ± 0.26 h and the “total protein half-life in vivo” value [9] was 6.31 ± 0.26 h. For the same sequence, the “total protein half-life in vivo” value [10] was 11.4 ± 0.66 h.

With “MHQVVCATTNPAKIQAILQAFHEIFGEGSCHIASVAVESGVPEQPFGSEETRAGARNRVANARRLLPEADFWVAIEAGIDGDSTFSWVVIENASQRGEARSATLPLPAVILEKVREGEALGPVMSRYTGIDEIGRKEGAIGVFTAGKLTRASVYHQAVILALSPFHNAVY” the “total protein half-life in vivo” value [1] was 4.71 ± 0.46 h, the “total protein half-life in vivo” value [11] was 3.828 ± 0.038 h and the “total protein half-life in vivo” value [2] was 3.608 ± 0.012 h. The “total protein half-life in vivo” value [3] was 4.01 ± 0.27 h, the “total protein half-life in vivo” value [4] was 3.57 ± 0.16 h and the “total protein half-life in vivo” value [12] was 2.81 ± 0.067 h. For the same sequence, the “total protein half-life in vivo” value [5] was 5.02 ± 0.2 h, the “total protein half-life in vivo” value [6] was 8.17 ± 0.45 h and the “total protein half-life in vivo” value [7] was 3.92 h. For the same sequence, the “total protein half-life in vivo” value [8] was 5.34 ± 0.057 h, the “total protein half-life in vivo” value [9] was 5.38 ± 0.72 h and the “total protein half-life in vivo” value [10] was 10.9 ± 2 h.

In the case of “MNEFPVVLVINCGSSSIKFSVLDASDCEVLMSGIADGINSENAFLSVNGGEPAPLAHHSYEGALKAIAFELEKRNLNDSVALIGHRIAHGGSIFTESAIITDEVIDNIRRVSPLAPLHNYANLSGIESAQQLFPGVTQVAVFDTSFHQTMAPEAYLYGLPWKYYEELGVRRYGFHGTSHRYVSQRAHSLLNLAEDDSGLVVAHLGNGASICAVRNGQSVDTSMGMTPLEGLMMGTRSGDVDFGAMSWVASQTNQSLGDLERVVNKESGLLGISGLSSDLRVLEKAWHEGHERAQLAIKTFVHRIARHIAGHAASLRRLDGIIFTGGIGENSSLIRRLVMEHLAVLGLEIDTEMNNRSNSCGERIVSSENARVICAVIPTNEEKMIALDAIHLGKVNAPAEFA”, the “total protein half-life in vivo” value [1] is reported as 3.9 h.

With “MNTIVFVEDDAEVGSLIAAYLAKHDMQVTVEPRGDQAEETILRENPDLVLLDIMLPGKDGMTICRDLRAKWSGPIVLLTSLDSDMNHILALEMGACDYILKTTPPAVLLARLRLHLRQNEQATLTKGLQETSLTPYKALHFGTLTIDPINRVVTLANTEISLSTADFELLWELATHAGQIMDRDALLKNLRGVSYDGLDRSVDVAISRLRKKLLDNAAEPYRIKTVRNKGYLFAPHAWE” the “total protein half-life in vivo” value [1] was 5.2 ± 1.1 h, the “total protein half-life in vivo” value [11] was 4.29 ± 0.89 h and the “total protein half-life in vivo” value [2] was 3.1 ± 0.46 h. The “total protein half-life in vivo” value [3] was 3.95 ± 0.079 h, the “total protein half-life in vivo” value [4] was 3.58 ± 0.22 h and the “total protein half-life in vivo” value [12] was 3.05 ± 0.78 h. For the same sequence, the “total protein half-life in vivo” value [5] was 5.03 ± 0.43 h, the “total protein half-life in vivo” value [6] was 7.3 ± 0.64 h and the “total protein half-life in vivo” value [7] was 3.662 ± 0.028 h. The “total protein half-life in vivo” value [8] was 5.27 ± 0.083 h, the “total protein half-life in vivo” value [9] was 4.82 ± 0.53 h and the “total protein half-life in vivo” value [10] was 7.92 ± 0.17 h.

With “MITIRDVARQAGVSVATVSRVLNNSTLVSADTREAVMKAVSELDYRPNANAQALATQVSDTIGVVVMDVSDAFFGALVKAVDLVAQQHQKYVLIGNSYHEAEKERHAIEVLIRQRCNALIVHSKALSDDELAQFMDNIPGMVLINRVVPGYAHRCVCLDNLSGARMATRMLLNNGHQRIGYLSSSHGIEDDAMRKAGWMSALKEQDIIPPESWIGAGTPDMPGGEAAMVELLGRNLQLTAVFAYNDNMAAGALTALKDNGIAIPLHLSIIGFDDIPIARYTDPQLTTVRYPIASMAKLATELALQGAAGNIDPRASHCFMPTLVRRHSVATRQNAAAITNSTNQAM” the “total protein half-life in vivo” value [1] was 5.93 h, the “total protein half-life in vivo” value [11] was 3.96 h and the “total protein half-life in vivo” value [5] was 4.74 ± 0.55 h. The “total protein half-life in vivo” value [6] was 8.13 ± 1.9 h and the “total protein half-life in vivo” value [10] was 10.9 h.

In the case of “MSEIVIRHAETRDYEAIRQIHAQPEVYCNTLQVPHPSDHMWQERLADRPGIKQLVACIDGDVVGHLTIDVQQRPRRSHVADFGICVDSRWKNRGVASALMREMIEMCDNWLRVDRIELTVFVDNAPAIKVYKKYGFEIEGTGKKYALRNGEYVDAYYMARVK”, the “total protein half-life in vivo” value [1] is reported as 4.84 ± 0.053 h, the “total protein half-life in vivo” value [11] is reported as 3.7 ± 0.65 h and the “total protein half-life in vivo” value [2] is reported as 4.09 ± 0.13 h. The “total protein half-life in vivo” value [3] was 4.56 ± 0.45 h, the “total protein half-life in vivo” value [4] was 3.82 ± 0.33 h and the “total protein half-life in vivo” value [12] was 3.03 ± 0.086 h. The “total protein half-life in vivo” value [5] was 4.83 ± 0.18 h, the “total protein half-life in vivo” value [6] was 10.4 ± 0.85 h and the “total protein half-life in vivo” value [7] was 3.91 h. For the same sequence, the “total protein half-life in vivo” value [8] was 6.73 ± 0.38 h, the “total protein half-life in vivo” value [9] was 5.26 ± 0.41 h and the “total protein half-life in vivo” value [10] was 11.3 ± 0.22 h.

In the case of “MSSLQILQGTFRLSDTKTLQLPQLTLNAGDSWAFVGSNGSGKSALARALAGELPLLKGERQSQFSHITRLSFEQLQKLVSDEWQRNNTDMLGPGEDDTGRTTAEIIQDEVKDAPRCMQLAQQFGITALLDRRFKYLSTGETRKTLLCQALMSEPDLLILDEPFDGLDVASRQQLAERLASLHQSGITLVLVLNRFDEIPEFVQFAGVLADCTLAETGAKEELLQQALVAQLAHSEQLEGVQLPEPDEPSARHALPANEPRIVLNNGVVSYNDRPILNNLSWQVNPGEHWQIVGPNGAGKSTLLSLVTGDHPQGYSNDLTLFGRRRGSGETIWDIKKHIGYVSSSLHLDYRVSTTVRNVILSGYFDSIGIYQAVSDRQQKLVQQWLDILGIDKRTADAPFHSLSWGQQRLALIVRALVKHPTLLILDEPLQGLDPLNRQLIRRFVDVLISEGETQLLFVSHHAEDAPACITHRLEFVPDGGLYRYVLTKIY”, the “total protein half-life in vivo” value [1] is reported as 4.48 ± 0.27 h, the “total protein half-life in vivo” value [11] is reported as 4.73 ± 1.6 h and the “total protein half-life in vivo” value [2] is reported as 3.5748 ± 0.0019 h. The “total protein half-life in vivo” value [3] was 4.54 ± 0.7 h, the “total protein half-life in vivo” value [4] was 4 ± 0.68 h and the “total protein half-life in vivo” value [12] was 2.84 ± 0.087 h. For the same sequence, the “total protein half-life in vivo” value [5] was 5.233 ± 0.03 h, the “total protein half-life in vivo” value [6] was 9.21 ± 0.47 h and the “total protein half-life in vivo” value [7] was 3.942 ± 0.016 h. The “total protein half-life in vivo” value [8] was 5.56 ± 0.14 h, the “total protein half-life in vivo” value [9] was 5.68 ± 0.2 h and the “total protein half-life in vivo” value [10] was 12 ± 0.93 h.

With “MMQPVINAPEIATAREQQLFNGKNFHVFIYNKTESISGLHQHDYYEFTLVLTGRYFQEINGKRVLLERGDFVFIPLGSHHQSFYEFGATRILNVGISKRFFEQHYLPLLPYCFVASQVYRTNNAFLTYVETVISSLNFRETGLEEFVEMVTFYVINRLRHYREEQVIDDVPQWLKSTVEKMHDKEQFSESALENMVALSAKSQEYLTRATQRYYGKTPMQIINEIRINFAKKQLEMTNYSVTDIAFEAGYSSPSLFIKTFKKLTSFTPKSYRKKLTEFNQ” the “total protein half-life in vivo” value [1] was 5.04 ± 0.62 h, the “total protein half-life in vivo” value [12] was 1.18 ± 0.012 h and the “total protein half-life in vivo” value [5] was 1.89 ± 0.2 h. The “total protein half-life in vivo” value [6] was 1.55 h.

Source: the supplement of paper PMC11246515
